In publication PMC3852661, “Structural basis of SUFU–GLI interaction in human Hedgehog signalling regulation” (Acta Crystallographica Section D: Biological Crystallography, 2013):

How the values were obtained:
MBP-SUFU-FL = molecular target: T1, MBP-SUFU-FL (Homo sapiens, UniProt Q9UMX1); test: SYPRO Orange initial fluorescence upon peptide addition, MBP-SUFU-FL; format: binding; settings: excitation 470 nm, emission 570 nm, pH 7.0
T1 construct: containing residues 32–483 of human SUFU and a C-terminal hexahistidine tag; hexahistidine tag (C); made in house; host or cells: Escherichia coli JM109 (DE3)
T1 sequence (Q9UMX1 32-483, other chains not shown): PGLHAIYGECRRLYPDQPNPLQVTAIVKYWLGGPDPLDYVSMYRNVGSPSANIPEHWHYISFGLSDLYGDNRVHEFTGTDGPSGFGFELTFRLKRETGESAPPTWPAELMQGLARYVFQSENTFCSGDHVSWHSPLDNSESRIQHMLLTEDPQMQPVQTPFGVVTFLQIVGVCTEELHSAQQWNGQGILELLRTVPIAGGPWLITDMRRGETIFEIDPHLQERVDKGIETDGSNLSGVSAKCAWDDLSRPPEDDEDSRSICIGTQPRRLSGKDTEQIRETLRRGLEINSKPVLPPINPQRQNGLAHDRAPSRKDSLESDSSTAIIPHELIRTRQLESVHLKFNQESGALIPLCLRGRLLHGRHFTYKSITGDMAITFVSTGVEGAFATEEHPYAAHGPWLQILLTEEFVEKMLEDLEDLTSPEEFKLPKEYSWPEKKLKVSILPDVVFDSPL
Experimental: (§1) Recombinant MBP-SUFU proteins were diluted to 2.6 µM in 50 mM Na HEPES pH 7.0, 50 mM NaCl, 5 mM β-mercaptoethanol; the peptides GLI1p and GLI1p-SH (Supplementary Table S1b), synthesized by Dr W. Mawby (University of Bristol), were dissolved in the same buffer. Proteins were spun at 14 000g for 20 min at 4°C before adding SYPRO Orange (Molecular Probes) to a final concentration of 6×. Reaction volumes of 25 µl were prepared in 96-well PCR plates with 2.2 µM protein/SYPRO Orange solution and, where applicable, 44 µM peptide. Plates were sealed with optical tape, heated from 20 to 90°C in 12 s 0.2°C steps in an iCycler and fluorescence was detected using an excitation wavelength of 470 nm and an emission wavelength of 570 nm.
(§2) Recombinant MBP-SUFU constructs were diluted to 2.5 µM in 50 mM Na HEPES pH 7.0, 50 mM NaCl, 5 mM β-mercaptoethanol and spun at 14 000g for 20 min at 4°C before the addition of SYPRO Orange to a final 5× concentration of dye. The fluorescence of 100 µl samples was measured in black 96-well plates (Nunc) using excitation at λ = 470 nm and emission at λ = 570 nm. GLI1p or GLI1p-SH peptides prepared in the same buffer as above were added in the given ratios and mixed before a second reading was taken. Readings post-peptide addition were divided by the corresponding pre-peptide addition measurements to obtain normalized results. […]

MBP-SUFU-Δ [1] = molecular target: T2, MBP-SUFU-Δ (Homo sapiens, UniProt Q9UMX1, DEL285-359/L360P/P281R/P282G/R280S/S279P); test: SYPRO Orange initial fluorescence upon peptide addition, MBP-SUFU-Δ; format: binding; settings: excitation 470 nm, emission 570 nm, pH 7.0
T2 construct: subcloning different SUFU32–483 variants into vector pLJMBP4c; His tag (as in MBP-SUFU-FL; purified on HisTrap) (C); made in house; host or cells: Escherichia coli JM109 (DE3)
T2 sequence (Q9UMX1 with tags, fused parts or gaps S279P/R280S/P281R/P282G/DEL285-359/L360P limits assumed, other chains not shown): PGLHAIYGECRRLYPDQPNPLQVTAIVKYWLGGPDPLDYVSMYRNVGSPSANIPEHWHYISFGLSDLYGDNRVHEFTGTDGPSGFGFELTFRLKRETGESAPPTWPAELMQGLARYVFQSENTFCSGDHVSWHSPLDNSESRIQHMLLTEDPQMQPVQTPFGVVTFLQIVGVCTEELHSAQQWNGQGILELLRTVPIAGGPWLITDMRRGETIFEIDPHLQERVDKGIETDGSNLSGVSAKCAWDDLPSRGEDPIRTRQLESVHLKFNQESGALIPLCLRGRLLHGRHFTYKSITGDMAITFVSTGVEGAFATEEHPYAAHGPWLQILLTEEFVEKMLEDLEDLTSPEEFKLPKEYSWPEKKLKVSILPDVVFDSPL
Experimental: as §1, §2

MBP-SUFU-SH = test: SYPRO Orange initial fluorescence upon peptide addition, MBP-SUFU-SH; format: binding, human; settings: excitation 470 nm, emission 570 nm, pH 7.0
MBP-SUFU-SH, sequence (Q9UMX1 32-278 limits assumed): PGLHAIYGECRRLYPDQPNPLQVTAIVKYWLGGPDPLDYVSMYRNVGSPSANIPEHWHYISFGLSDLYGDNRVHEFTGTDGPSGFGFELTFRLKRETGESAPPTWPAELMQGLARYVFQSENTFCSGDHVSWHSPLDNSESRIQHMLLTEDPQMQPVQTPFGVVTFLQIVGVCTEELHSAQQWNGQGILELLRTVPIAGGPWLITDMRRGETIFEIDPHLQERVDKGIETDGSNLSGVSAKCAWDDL
MBP-SUFU-SH, sequence (Q9UMX1 361-483 limits assumed): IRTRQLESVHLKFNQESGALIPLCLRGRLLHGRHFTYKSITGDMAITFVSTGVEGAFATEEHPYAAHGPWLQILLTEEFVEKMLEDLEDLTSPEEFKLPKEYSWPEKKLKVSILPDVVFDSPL
Experimental: as §1, §2

MBP-SUFU-Δ [2] = molecular target: T2, MBP-SUFU-Δ; test: Thermal stability assay with peptide, MBP-SUFU-Δ; format: binding; settings: 44 µM peptide, 2.2 µM protein, SYPRO Orange, 50 mM Na HEPES pH 7.0, 50 mM NaCl, 5 mM β-mercaptoethanol; triplicate
Experimental: Recombinant MBP-SUFU proteins were diluted to 2.6 μM in 50 mM Na HEPES pH 7.0, 50 mM NaCl, 5 mM β-mercaptoethanol; the peptides GLI1p and GLI1p-SH (Supplementary Table S1b), synthesized by Dr W. Mawby (University of Bristol), were dissolved in the same buffer. Proteins were spun at 14 000g for 20 min at 4°C before adding SYPRO Orange (Molecular Probes) to a final concentration of 6×. Reaction volumes of 25 μl were prepared in 96-well PCR plates with 2.2 μM protein/SYPRO Orange solution and, where applicable, 44 μM peptide. Plates were sealed with optical tape, heated from 20 to 90°C in 12 s 0.2°C steps in an iCycler and fluorescence was detected using an excitation wavelength of 470 nm and an emission wavelength of 570 nm. To determine whether the IDR affects the GLI-binding properties of SUFU, we used a human GLI1-derived peptide (GLI1p; residues 115-131; Supplementary Table S1b) containing the highly conserved SYGH motif important for interaction with SUFU (Dunaeva et al., 2003[▶]) in a thermal stability assay with MBP-SUFU-FL and MBP-SUFU-Δ (Fig. 4 ▶ a). The addition of GLI1p stabilized both proteins: T m for MBP-SUFU-FL was shifted by 4°C and that for MBP-SUFU-Δ was shifted by 3.6°C. […] The GLI1 dose dependency of this effect was confirmed in a separate experiment with increasing GLI1p concentrations (Supplementary Fig. […]).

- initial fluorescence upon addition of GLI1p (MBP-SUFU-FL): high initial fluorescence values
- initial fluorescence upon addition of GLI1p (MBP-SUFU-Δ [1]): no such effect
- Tm shift (MBP-SUFU-Δ [2]): 3.6 °C
Substance: GLI1p: human GLI1-derived peptide; residues 115–131, containing the highly conserved SYGH motif (TSPGGSYGHLSIGTMSP)
- initial fluorescence upon addition of GLI1p (MBP-SUFU-SH): no such effect
